# ± gives the uncertainty stated by the source.
# Assay: amyloid nucleation score (Sup35N fusion, yeast selection) (log enrichment); library NNK1; higher = more nucleation; inactive = no reads after selection
# How it was run: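 In psi-negative yeast, Sup35N fusions carrying peptides of 20 random codons were induced with 100 μM copper sulfate for 24 hours. The cells then grew 7 days at 30°C on medium lacking adenine and uracil, and plasmid inserts from input and output were Illumina-sequenced, excluding sequences with under 100 input reads. Nucleation score is the DiMSum log enrichment of output over input reads, centred on the mode score of non-aggregating sequences.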
row,Substance,amyloid nucleation score
1,NWCVLALIN,1.83 ± 0.43
2,TNTSWVFVVCIEHKEMDQAV,5.9 ± 0.086
3,NYALGFRAAWIIRLLRWSVE,0.254 ± 0.57
4,FFSYVYGVSACFLVTLLFGP,-0.229 ± 0.32
5,LLVLYCALLMRLSGLGHAWG,-0.269 ± 0.51
6,IRGVKSYLSLITLFSKTHLV,-0.833 ± 0.39
7,RREFYFLLVIALKSV,1.32 ± 0.31
8,GAKICIYELVLHEMRACVAR,-0.282 ± 0.96
9,LYRRGTRPPG,-1.28 ± 2.4
10,GYLLAERDLNIATARGSLLR,-0.514 ± 0.65
11,IGLAICNLLFSTGWGYQPLW,5.75 ± 0.083
12,KIICFRLKSPLVWKMYDKTG,-0.699 ± 0.32
13,PYWVYEHSTC,-0.726 ± 0.63
14,VVSRIDPCTWHCAMIKGHRY,-0.332 ± 1.1
15,SSVPHFAGSVVASDPPLYRL,0.949 ± 0.81
16,IVDYVGCLRHYECYGWQPWG,0.225 ± 0.51
17,RFFISYTFSWPRYLVGKDLL,-0.936 ± 0.34
18,LTGLVMTVCFFWKARRF,0.845 ± 0.86
19,TMIDNPVYPSVFRVGHDTLV,0.356 ± 0.3
20,VSTNSDSLLGNCRKNPVHPS,1.03 ± 0.79
21,VFSLYSTQKLSRRVIGMLGL,0.725 ± 0.81
22,TVTYRLYVPATVCFKILFRR,-0.625 ± 0.33

row,Substance,amyloid nucleation score
1,THTYGGDG,-0.096 ± 0.74
2,YNSVLVTYYCKFSHTDSDSI,3.04 ± 0.18
3,RLASMREHLVWYRRGFRVCC,0.725 ± 0.58
4,MSMYYISSCIISLSQVGMYV,1.26 ± 0.38
5,HLSEFAVGVCEVY,1.27 ± 0.56
6,HFFDITLKADNSIILSLSKS,6.549 ± 0.057
7,IRCDKLISNSNMLGDKLTL,inactive
8,MGYRDNLSF,0.915 ± 0.53
9,ICVSSGSVIIIVTYFAKCPA,0.484 ± 0.24
10,RAGQVRNNDTSVEFAMCGRW,0.355 ± 0.38
11,CASWTCAEKAEHTMYMEDYP,0.02 ± 0.36
12,ESSAIRNGEC,0.252 ± 0.52
13,ISWFRCLEVWPSYGIPDWKN,-0.467 ± 0.28
14,IIRKPGLTRTCHTVLTAASE,0.511 ± 0.91
15,IIVGEFENLYNSAINVK,inactive
16,SVLNNLAAPDKARLRPCNWV,0.379 ± 0.54
17,SWVNRPYWSPGDTTVWYGC,1.06 ± 0.52
18,KRRWPSSNGDFFAECYQLGT,0.461 ± 0.25
19,VSVFNAQFIDRRGCR,5.16 ± 0.063
20,STRYRPLNWYLTKPPVRFKM,-0.037 ± 0.56
21,VMTWHL,-0.73 ± 0.45
22,AKRLWIQLRGVHSRMLTGYY,-0.244 ± 1.5

row,Substance,amyloid nucleation score
1,SGGPGDAGRLRQ,-0.005 ± 0.91
2,GWVGLLH,0.457 ± 0.31
3,IKEFLKACNHHEPMPGNLMR,-0.005 ± 0.54
4,YKGLFR,0.065 ± 0.45
5,LIFNQLWWRKSMCLQVRPGQ,-1.25 ± 0.92
6,IISVMTIARGNPVCTHIKYG,0.169 ± 0.29
7,KELIKCYLNM,0.463 ± 0.5
8,EMAFSSINPRGHSIQGSASG,-0.282 ± 1.2
9,CLFLLNVGLSLLIGLPRYMW,0.552 ± 0.91
10,NACRCVYSGRVSAYDVRVRN,0 ± 0.6
11,GAPLTENKFVLRNFVMGSAL,0.159 ± 0.77
12,RFRNGLNLFRMSNMFSNLKH,-0.129 ± 1.1
13,AGFQFSIDYR,0.259 ± 0.51
14,FSVNP,1.22 ± 0.69
15,SSSHDSIVFVRRLPHYCRGF,0.323 ± 0.43
16,LSWFPA,0.179 ± 0.27
17,MDSTDWRVLLGRSMGWS,-0.596 ± 0.47
18,NYYIRRTCMSTYYVRVLIKS,0.522 ± 0.39
19,VGRYFTMCFYKSMHRCRRVF,0.266 ± 0.38
20,GQLWGEVVIVYCKFAMEWAY,0.898 ± 0.27
21,LSSCFPIDRSEDSDVYGYFK,-0.252 ± 0.49
22,TGDVLIYWFLVTHRMTAVQV,-0.096 ± 1

row,Substance,amyloid nucleation score
1,AYAVVGAM,0.604 ± 0.69
2,DWRYPLAYPVFSIDSRMFD,-0.312 ± 0.46
3,WNGTFNVPWSFDFRCSWVGK,0.719 ± 0.79
4,LYHSTLYLNVCYTYHSAGGN,1.24 ± 0.21
5,PWKWF,-0.224 ± 0.43
6,MSCYLQAFDITTTTNDASWW,-0.95 ± 1.6
7,NCVQARFDERCVRGLGCKFY,-0.724 ± 0.64
8,FQIRSRISIDCVMVNRDELS,1.41 ± 0.18
9,RLYNLTSVRKFVLLSSM,0.235 ± 0.4
10,QSETDQIFEVFFSDWHSCTK,0.777 ± 0.97
11,LSEIFSCENGVVGSNSETLT,-0.107 ± 0.35
12,FWKGASINYS,inactive
13,NTYVYNDKGVRNIWKKLVYT,inactive
14,NADMFRTVLMMMFPAFRLIR,0.172 ± 0.22
15,PYMVSGSWPKFRT,0.041 ± 0.58
16,LRLRVTNVLILGSLGIDEMY,2.37 ± 0.28
17,LLATCVRVECY,1.58 ± 0.51
18,MHGSGLHSDSLGPTV,0.565 ± 0.69
19,NRQKFSDVSYCTMTMFRVAH,-0.61 ± 1.7

# Reference: the supplement of paper PMC12042874
